Here are results for four molecules from publication PMC10787639 (Frontiers in Molecular Biosciences, 2023).

Series [1] concerns the target PolD4 (Homo sapiens) (UniProt Q9HCU8). Description: ITC. The settings on record: cited from earlier work.
For series [2], the target named is PolD3/p66 (Homo sapiens) (UniProt Q15054). Description: ITC. The note with it: cited from earlier work.
The target of series [3] is Chaetomium thermophilum PCNA (proliferating cell nuclear antigen) (Chaetomium thermophilum). Description: crystal structure; Ct PCNA (14 mg/mL) mixed with Ct PolD3 PIP peptide (8 mg/mL in dH2O); crystals in 0.1 M phosphate/citrate pH 4.2, 40% PEG 300; space group P1, one PCNA trimer in the asymmetric unit; 2.45 A; the peptide occupies a single PIP binding site, the others occluded by crystal packing.

Series [4] is classed as physicochemical. The settings on record: lyophilised peptide; resuspended in DMSO at 8 mg/mL (4.8 mM) instead. The text has this:
A 15mer Ct PolD3 PIP peptide spanning residues 437–451 (sequence: ^437GKGGQGSIMSWFAKK^451) and a 15mer Ct Fen1 peptide spanning residues 339–353 (^339GAQQARIEGFFKVIP^353) were commercially synthesised (GenScript, Piscataway, New Jersey, United States) and obtained in lyophilised form at final purities of 99.4% and 99.1%, respectively.

The target of series [5] is Chaetomium thermophilum PCNA (proliferating cell nuclear antigen) (Chaetomium thermophilum). The series can be described thus: ITC; 420 uM Ct PolD3 peptide injected into 300 uL of 32.7 uM Ct PCNA; 25°C; 50 mM Tris-HCl, 150 mM NaCl, pH 8.0; duplicate; single site model (1 peptide: 1 PCNA protomer).

Sequence of PCNA (P12004 whole entry): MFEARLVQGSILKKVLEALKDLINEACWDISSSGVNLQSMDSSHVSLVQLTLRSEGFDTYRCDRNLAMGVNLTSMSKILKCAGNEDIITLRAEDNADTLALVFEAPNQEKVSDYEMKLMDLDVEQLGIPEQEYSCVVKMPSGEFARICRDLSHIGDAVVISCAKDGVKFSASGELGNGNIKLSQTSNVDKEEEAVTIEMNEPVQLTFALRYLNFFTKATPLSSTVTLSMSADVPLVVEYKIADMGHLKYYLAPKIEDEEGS
Sequence of UniProt Q9HCU8 (Q9HCU8 whole entry): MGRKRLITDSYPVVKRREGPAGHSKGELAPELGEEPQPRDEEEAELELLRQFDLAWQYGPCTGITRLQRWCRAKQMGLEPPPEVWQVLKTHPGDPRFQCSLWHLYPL
Sequence of UniProt Q15054 (Q15054 2-466): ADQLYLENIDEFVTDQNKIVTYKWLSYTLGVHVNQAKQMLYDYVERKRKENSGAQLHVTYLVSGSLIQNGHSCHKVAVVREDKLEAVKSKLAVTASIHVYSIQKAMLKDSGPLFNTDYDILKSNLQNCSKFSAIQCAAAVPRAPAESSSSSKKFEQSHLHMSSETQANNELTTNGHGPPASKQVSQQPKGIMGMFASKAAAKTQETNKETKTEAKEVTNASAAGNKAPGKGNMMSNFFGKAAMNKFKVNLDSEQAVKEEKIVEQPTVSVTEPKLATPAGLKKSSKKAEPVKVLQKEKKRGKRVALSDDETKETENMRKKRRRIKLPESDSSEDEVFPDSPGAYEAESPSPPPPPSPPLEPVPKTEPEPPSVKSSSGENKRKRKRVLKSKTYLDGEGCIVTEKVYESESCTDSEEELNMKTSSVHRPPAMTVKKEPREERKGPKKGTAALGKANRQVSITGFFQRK

For the molecule PCNA (from UniProt P12004), the values for the Kd in series [1] and in series [2] were 38 µM and 16 µM, respectively. Take “Chaetomium thermophilum PCNA (proliferating cell nuclear antigen) (natural protein)”: the stoichiometry N in series [3] turned out to be 3. Consider “GAQQARIEGFFKVIP [Ct Fen1 PIP peptide, 15mer Ct Fen1 peptide spanning residues 339–353, commercially synthesised (GenScript), purity 99.1%]”, for which the “solubility in aqueous solution” value in series [4] is on record as “insoluble in aqueous solution”. For the molecule GKGGQGSIMSWFAKK [Ct PolD3 PIP peptide (15mer, residues 437-451)], in series [5], the equilibrium dissociation constant (Kd) worked out at 43.2 µM and the stoichiometry N (PIP peptide per PCNA protomer) amounted to 1.

As a reminder, the Kd is the equilibrium constant for the complex coming apart. For orientation: stoichiometry N means a count of units in the complex or per binding partner.
